To fix the notation:
B1: Ankyrin repeat-containing protein YAR1 (Saccharomyces cerevisiae), P46683 (parent)
chain: MGLHSEPLDQEDQDTIILDARAGDLDSLKDIFTTLVSPELLSTCKESESDSTALHMAAANGHIETVRYILETVSRANSAEDLKAFVNEVNKTGNTALHWASLNGKLDVVKLLCDEYEADPFIRNKFGHDAIFEAENSGKEEVETYFLKKYDVEPEDDEEDTQTEGKNSVQITKGTEIEQVTKEATEALREETEKLNINKD
partner: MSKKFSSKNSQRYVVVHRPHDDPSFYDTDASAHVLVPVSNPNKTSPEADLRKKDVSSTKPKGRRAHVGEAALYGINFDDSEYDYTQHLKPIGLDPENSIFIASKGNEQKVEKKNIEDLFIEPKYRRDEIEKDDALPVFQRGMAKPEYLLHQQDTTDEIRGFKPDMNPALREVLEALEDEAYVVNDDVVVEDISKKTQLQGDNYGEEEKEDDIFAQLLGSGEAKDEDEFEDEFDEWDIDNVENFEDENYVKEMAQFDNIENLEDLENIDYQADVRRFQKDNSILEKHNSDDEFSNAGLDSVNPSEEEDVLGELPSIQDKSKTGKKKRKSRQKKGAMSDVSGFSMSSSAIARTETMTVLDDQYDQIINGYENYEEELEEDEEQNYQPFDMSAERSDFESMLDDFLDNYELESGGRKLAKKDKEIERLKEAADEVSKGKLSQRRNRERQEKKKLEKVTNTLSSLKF

This is an account of results in IntAct's records for PubMed 15611164.

Variants of B1 are the subject of this assay. The following applies: with ltv1_yeast LTV1, P34078.
On to K125A, for which the “effect of a mutation on the interaction” value is given as “decreasing interaction”.
The entry for K91A is “decreasing interaction”.
